# Results from the RNAGym collection of RNA variant scans (doi:10.7554/elife.80360).
# B1: HDV Ribozyme (parent)
# chain: GGCCGGCAUGGUCCCAGCCUCCUCGCUGGCGCCGGCUGGGCAACAUUCCGAGGGGACCGUCCCCUCGGUAAUGGCGAAUGGGACCCA
# Variants of: B1
# Test: self-cleavage, relative activity (ratio to wild type); higher = more cleavage; co-transcriptional
row,Variant,self-cleavage
1,GGCCGGCAUGGUCCCAGCCUCCUCGCUGGCGCCGGCUGGGCAACAUUCCGAGGGGACCGUCCUCUCGGUAAUGGCGAAUCGGACCCA,0.218
2,GGCCGGCAUGGUCCCAGCCUCCUCGCUGGCGCCGGCUGGGCAACAUUCCGAGGGGACCGUCCUCUCGGUAAUGGCGAAUUGGACCCA,0.224
3,GGCCGGCAUGGUCCCAGCCUCCUCGCUGGCGCCGGCUGGGCAACAUUCCGAGGGGACCGUCCUCUCGGUAAUGGCGAAUAGGACCCA,0.482
4,GGCCGGCAUGGUCCCAGCCUCCUCGCUGGCGCCGGCUGGGCAACAUUCCGAGGGGACCGUCCGCUCGUUAAUGGCGAAUGGGACCCA,0.504
5,GGCCGGCAUGGUCCCAGCCUCCUCGCUGGCGCCGGCUGGGCAACAUUCCGAGGGGACCGUCCGCUCGAUAAUGGCGAAUGGGACCCA,0.366
6,GGCCGGCAUGGUCCCAGCCUCCUCGCUGGCGCCGGCUGGGCAACAUUCCGAGGGGACCGUCCCAUCGGUACUGGCGAAUGGGACCCA,0.277
7,GGCCGGCAUGGUCCCAGCCUCCUCGCUGGCGCCGGCUGGGCAACAUUCCGAGGGGACCGUCCGCUCGGUAAUCGCGAAUGGGACCCA,0.437
8,GGCCGGCAUGGUCCCAGCCUCCUCGCUGGCGCCGGCUGGGCAACAUUCCGAGGGGACCGUCCUCUUGGUAAUGGCGAAUGGGACCCA,0.816
9,GGCCGGCAUGGUCCCAGCCUCCUCGCUGGCGCCGGCUGGGCAACAUUCCGAGGGGACCGUCCUCUCGGUAAUGGCGAAUGGGACCCG,0.927
10,GGCCGGCAUGGUCCCAGCCUCCUCGCUGGCGCCGGCUGGGCAACAUUCCGAGGGGACCGUCCUCUCGGUAAUGGCGAAUGGGACCCC,0.894
11,GGCCGGCAUGGUCCCAGCCUCCUCGCUGGCGCCGGCUGGGCAACAUUCCGAGGGGACCGUCCUCUCGGUAAUGGCGCAUGGGACCCA,0.352
12,GGCCGGCAUGGUCCCAGCCUCCUCGCUGGCGCCGGCUGGGCAACAUUCCGAGGGGACCGUCCCAUCGGUUAUGGCGAAUGGGACCCA,0.752
13,GGCCGGCAUGGUCCCAGCCUCCUCGCUGGCGCCGGCUGGGCAACAUUCCGAGGGGACCGUCCCAUCGGUGAUGGCGAAUGGGACCCA,0.749
14,GGCCGGCAUGGUCCCAGCCUCCUCGCUGGCGCCGGCUGGGCAACAUUCCGAGGGGACCGUCCCAUCGGUCAUGGCGAAUGGGACCCA,0.623
15,GGCCGGCAUGGUCCCAGCCUCCUCGCUGGCGCCGGCUGGGCAACAUUCCGAGGGGACCGUCCGCCCGGUAAUGGCGAAUGGGACCCA,0.151
16,GGCCGGCAUGGUCCCAGCCUCCUCGCUGGCGCCGGCUGGGCAACAUUCCGAGGGGACCGUCCGCGCGGUAAUGGCGAAUGGGACCCA,0.277

row,Variant,self-cleavage
1,GGCCGGCAUGGUCCCAGCCUCCUCGCUGGCGCCGGCUGGGCAACAUUCCGAGGGGACCGUCCUCUCGGGAAUGGCGAAUGGGACCCA,0.875
2,GGCCGGCAUGGUCCCAGCCUCCUCGCUGGCGCCGGCUGGGCAACAUUCCGAGGGGACCGUCCCAUCGGUAAUGGCGAAUGGGACCCA,0.908
3,GGCCGGCAUGGUCCCAGCCUCCUCGCUGGCGCCGGCUGGGCAACAUUCCGAGGGGACCGUCCUCUCGGUAAUGCCGAAUGGGACCCA,0.201
4,GGCCGGCAUGGUCCCAGCCUCCUCGCUGGCGCCGGCUGGGCAACAUUCCGAGGGGACCGUCCUCUCGGUAAUGACGAAUGGGACCCA,0.546
5,GGCCGGCAUGGUCCCAGCCUCCUCGCUGGCGCCGGCUGGGCAACAUUCCGAGGGGACCGUCCUCUCGGUAAUAGCGAAUGGGACCCA,0.831
6,GGCCGGCAUGGUCCCAGCCUCCUCGCUGGCGCCGGCUGGGCAACAUUCCGAGGGGACCGUCCUCUCGGUACUGGCGAAUGGGACCCA,1.15
7,GGCCGGCAUGGUCCCAGCCUCCUCGCUGGCGCCGGCUGGGCAACAUUCCGAGGGGACCGUCCUCUCGGUAAUGGCGAAUGGUACCCA,0.509
8,GGCCGGCAUGGUCCCAGCCUCCUCGCUGGCGCCGGCUGGGCAACAUUCCGAGGGGACCGUCCUCUCGGUAAUGGCGAAUGGCACCCA,0.192
9,GGCCGGCAUGGUCCCAGCCUCCUCGCUGGCGCCGGCUGGGCAACAUUCCGAGGGGACCGUCCUCUCGGUAAUGGCGAAUGGAACCCA,0.534
10,GGCCGGCAUGGUCCCAGCCUCCUCGCUGGCGCCGGCUGGGCAACAUUCCGAGGGGACCGUCCUCUCGGUAAUGGCGAAAGGGACCCA,0.997
11,GGCCGGCAUGGUCCCAGCCUCCUCGCUGGCGCCGGCUGGGCAACAUUCCGAGGGGACCGUCCUCUCGGUAAUGGCGAAGGGGACCCA,0.54
12,GGCCGGCAUGGUCCCAGCCUCCUCGCUGGCGCCGGCUGGGCAACAUUCCGAGGGGACCGUCCUCUCGGUAAUGGCGAACGGGACCCA,0.411
13,GGCCGGCAUGGUCCCAGCCUCCUCGCUGGCGCCGGCUGGGCAACAUUCCGAGGGGACCGUCCUCUCGGUAAUGGCGAAUGCGACCCA,0.151
14,GGCCGGCAUGGUCCCAGCCUCCUCGCUGGCGCCGGCUGGGCAACAUUCCGAGGGGACCGUCCUCUCGGUAAUGGCGAAUGAGACCCA,0.521
15,GGCCGGCAUGGUCCCAGCCUCCUCGCUGGCGCCGGCUGGGCAACAUUCCGAGGGGACCGUCCGCUCGGUAAUGGCGAAUGGAACCCA,0.219
16,GGCCGGCAUGGUCCCAGCCUCCUCGCUGGCGCCGGCUGGGCAACAUUCCGAGGGGACCGUCCGCUCGGUAAUGGCGAAUGGCACCCA,0.136
